US20180030151A1 (MOGAM INSTITUTE FOR BIOMEDICAL RESEARCH, published 2018)
Read-outs that look alike come from different tables or passages of the source.

How the values were obtained:
Assay in all cases: cell-based or functional assay
[1] = target: T1, recombinant human TFPI (tissue factor pathway inhibitor) (human, UniProt P10646 29-304)
[2] = target: T1, recombinant human TFPI (tissue factor …); remark: listed apart in the source
[3] = target: T1, recombinant human TFPI (tissue factor …); remark: listed apart in the source
[4] = target: T1, recombinant human TFPI (tissue factor …); remark: listed apart in the source
[5] = target: T1, recombinant human TFPI (tissue factor …); remark: listed apart in the source
[6] = target: T1, recombinant human TFPI (tissue factor …); remark: listed apart in the source
[7] = target: T1, recombinant human TFPI (tissue factor …); remark: listed apart in the source
[8] = target: T1, recombinant human TFPI (tissue factor …); remark: listed apart in the source
[9] = target: T1, recombinant human TFPI (tissue factor …); remark: listed apart in the source
[10] = target: TFPI in FVIII-deficient plasma (sample dilution)
[11] = target: T1, recombinant human TFPI (tissue factor …); remark: listed apart in the source
[12] = target: T1, recombinant human TFPI (tissue factor …); remark: listed apart in the source

B1: clone 1023 (antibody, V domains shown)
VH: EVQLVESGGGLVKPGGSLRLSCAASGFTFSSYAMNWVRQAPGKGLEWVGTITTGGSYTYYADSVDGRFTISRDNAKNSLYLQMNSLRAEDTAVYYCARQDGNFLMDYWGQGTLVTVSS
VL: DVVMTQTPLSLPVTLGQPASISCKSSQSLLDIDGKTYLNWLQQRPGQSPKRLIYLVSKLDSGVPDRFTGSGSGTDFTLKISRVEAEDVGVYYCWQGTHFPFTFGQGTKVEIKR
notes: scFv on yeast at selection; human IgG4/kappa IgG as purified
- % of Normalized, TF/FVIIa/FX complex assay, Ab 1.56 nM [1]: 4.8%
- % of Normalized, TF/FVIIa/FX complex assay, Ab 3.13 nM [1]: 6%
- % of Normalized, TF/FVIIa/FX complex assay, Ab 6.25 nM [1]: 8.3%
- % of Normalized, TF/FVIIa/FX complex assay, Ab 12.5 nM [1]: 10.3%
- % of Normalized, TF/FVIIa/FX complex assay, Ab 25 nM [1]: 43.7%
- % of Normalized, TF/FVIIa/FX complex assay, Ab 50 nM [1]: 80.3%
- % of Normalized, TF/FVIIa/FX complex assay, Ab 100 nM [1]: 99.8%
- % of Normalized, TF/FVIIa/FX complex assay, Ab 1.56 nM [2]: 14.7%
- % of Normalized, TF/FVIIa/FX complex assay, Ab 3.13 nM [2]: 17.5%
- % of Normalized, TF/FVIIa/FX complex assay, Ab 6.25 nM [2]: 20.2%
- % of Normalized, TF/FVIIa/FX complex assay, Ab 12.5 nM [2]: 31.6%
- % of Normalized, TF/FVIIa/FX complex assay, Ab 25 nM [2]: 99.8%
- % of Normalized, TF/FVIIa/FX complex assay, Ab 50 nM [2]: 102%
- % of Normalized, TF/FVIIa/FX complex assay, Ab 100 nM [2]: 103%
- FXa assay % of FXa alone, 2.5 nM Ab, 10 nM TFPI [3]: 6.7%
- FXa assay % of FXa alone, 5 nM Ab, 10 nM TFPI [3]: 26.6%
- FXa assay % of FXa alone, 10 nM Ab, 10 nM TFPI [3]: 82.3%
- FXa assay % of FXa alone, 20 nM Ab, 10 nM TFPI [3]: 84%
- FXa assay OD, 2.5 nM Ab, 10 nM TFPI [3]: 0.051
- FXa assay OD, 5 nM Ab, 10 nM TFPI [3]: 0.203
- FXa assay OD, 10 nM Ab, 10 nM TFPI [3]: 0.626
- FXa assay OD, 20 nM Ab, 10 nM TFPI [3]: 0.639
- FXa assay % of FXa alone, 2.5 nM Ab, 10 nM TFPI [4]: 7.9%
- FXa assay % of FXa alone, 5 nM Ab, 10 nM TFPI [4]: 37.7%
- FXa assay % of FXa alone, 10 nM Ab, 10 nM TFPI [4]: 84.3%
- FXa assay % of FXa alone, 20 nM Ab, 10 nM TFPI [4]: 91.7%
- FXa assay OD, 2.5 nM Ab, 10 nM TFPI [4]: 0.064
- FXa assay OD, 5 nM Ab, 10 nM TFPI [4]: 0.306
- FXa assay OD, 10 nM Ab, 10 nM TFPI [4]: 0.684
- FXa assay OD, 20 nM Ab, 10 nM TFPI [4]: 0.745
- A405, TF/FVIIa/FX complex assay, Ab 1.56 nM [5]: 0.153
- A405, TF/FVIIa/FX complex assay, Ab 3.13 nM [5]: 0.167
- A405, TF/FVIIa/FX complex assay, Ab 6.25 nM [5]: 0.19
- A405, TF/FVIIa/FX complex assay, Ab 12.5 nM [5]: 0.259
- A405, TF/FVIIa/FX complex assay, Ab 25 nM [5]: 0.923
- A405, TF/FVIIa/FX complex assay, Ab 50 nM [5]: 0.905
- A405, TF/FVIIa/FX complex assay, Ab 100 nM [5]: 0.935
- % of Normalized, TF/FVIIa/FX complex assay, Ab 1.56 nM [6]: 15.6%
- % of Normalized, TF/FVIIa/FX complex assay, Ab 3.13 nM [6]: 16.5%
- % of Normalized, TF/FVIIa/FX complex assay, Ab 6.25 nM [6]: 18.2%
- % of Normalized, TF/FVIIa/FX complex assay, Ab 12.5 nM [6]: 24.8%
- % of Normalized, TF/FVIIa/FX complex assay, Ab 25 nM [6]: 86.5%
- % of Normalized, TF/FVIIa/FX complex assay, Ab 50 nM [6]: 103%
- % of Normalized, TF/FVIIa/FX complex assay, Ab 100 nM [6]: 104%
- FXa assay % of FXa alone, 2.5 nM Ab, 10 nM TFPI [7]: 8.4%
- FXa assay % of FXa alone, 5 nM Ab, 10 nM TFPI [7]: 40.8%
- FXa assay OD, 2.5 nM Ab, 10 nM TFPI [7]: 0.0605
- FXa assay OD, 5 nM Ab, 10 nM TFPI [7]: 0.293
- FXa assay OD, 10 nM Ab, 10 nM TFPI [7]: 0.605
- A405, TF/FVIIa/FX complex assay (FX 5 nM), Ab 1.56 nM [8]: 0.05
- A405, TF/FVIIa/FX complex assay (FX 5 nM), Ab 3.13 nM [8]: 0.048
- A405, TF/FVIIa/FX complex assay (FX 5 nM), Ab 6.25 nM [8]: 0.056
- A405, TF/FVIIa/FX complex assay (FX 5 nM), Ab 12.5 nM [8]: 0.079
- A405, TF/FVIIa/FX complex assay (FX 5 nM), Ab 25 nM [8]: 0.216
- A405, TF/FVIIa/FX complex assay (FX 5 nM), Ab 50 nM [8]: 0.652
- A405, TF/FVIIa/FX complex assay (FX 5 nM), Ab 100 nM [8]: 0.81
- effect of inhibiting TFPI, FXa activity assay, Ab 10 nM [9]: ~84%
- effect of inhibiting TFPI, FXa activity assay, Ab 20 nM [9]: ~86%
- ETP vs negative control, thrombin generation assay, Ab 2.5 nM [10]: ~309%
- thrombin peak vs blank, thrombin generation assay, Ab 2.5 nM [10]: ~401%
- A405, TF/FVIIa/FX complex assay, Ab 1.56 nM [11]: 0.135
- A405, TF/FVIIa/FX complex assay, Ab 3.13 nM [11]: 0.16
- A405, TF/FVIIa/FX complex assay, Ab 6.25 nM [11]: 0.185
- A405, TF/FVIIa/FX complex assay, Ab 12.5 nM [11]: 0.29
- A405, TF/FVIIa/FX complex assay, Ab 25 nM [11]: 0.914
- A405, TF/FVIIa/FX complex assay, Ab 50 nM [11]: 0.938
- A405, TF/FVIIa/FX complex assay, Ab 100 nM [11]: 0.939
- FXa assay % of FXa alone, 2.5 nM Ab, 10 nM TFPI [12]: 8.1%
